Patent publication US11278600B2, “Human alpha-galactosidase variants” (Codexis, Inc., priority 2014, dated 2022)

Legend:
Format in all cases: biochemical
[1] = HTP-analysis of supernatants pretreated with acid (MUGal hydrolysis); settings: challenge at pH 3.3; activity of the variant/activity of Rd3BB (SEQ ID NO: 13); yeast supernatant
Procedure, shortened: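 MUGal hydrolysis was tracked by fluorescence (Ex 355 nm, Em 448 nm) after a 30-180 min reaction at 37° C. in pH 4.8 McIlvaine/citrate buffer, stopped with 1 M sodium carbonate. Beforehand, yeast (INVSc1) culture supernatants carrying GLA variants were held 1-3 h at 37° C. in acidic McIlvaine buffer, pH 3.3-4.3.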

[2] = HTP-analysis of yeast culture supernatants, no challenge (MUGal hydrolysis); settings: activity of the variant/activity of Rd3BB (SEQ ID NO: 13), yeast supernatant
Procedure, shortened: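 GLA variants were expressed in INVSc1 yeast grown in SD-Ura broth with glucose at 30° C., and culture supernatants were collected after 66-84 h. Supernatant was mixed with McIlvaine buffer pH 4.8 and MUGal (2 mM stock) in 50 mM citrate, 200 mM KCl, pH 4.6, incubated at 37° C. for 30-180 minutes, then quenched with sodium carbonate.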

[3] = HTP-analysis of supernatants pretreated with base (MUGal hydrolysis); settings: challenge at pH 9.7; activity of the variant/activity of Rd3BB (SEQ ID NO: 13); yeast supernatant
Procedure, shortened: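 Fluorescence of released 4-MU (Ex 355 nm, Em 448 nm) after carbonate quench reports MUGal hydrolysis by GLA variants secreted from INVSc1 yeast. Before the acidic (pH 4.3-4.8) 30-180 min reaction at 37° C, supernatants had been pre-incubated at pH 7.0-9.7 for 1-18 h at 37° C.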

Molecule	Relative Activity of GLA Variants After Challenge at pH 3.3 [1]	Relative Activity of GLA Variants After No Challenge (NC) [2]	Relative Activity of GLA Variants After Challenge at pH 9.7 [3]
624 (protein, Synthetic Polypeptide sequence of Variant No. 624 of mature Human GLA) LDNGLARTPTMGWLHWERFMCNLDCQEEPDSCISEKLFMEMAERMVNEGWKDAGYEYLCIDDCWMAPQRDSEGRLQADPQRFPHGIRQLANYVHSKGLKLGIYADVGNKTCAGFPGSFGYYDIDAQTFADWGVDLLKFDGCYCDSLENLADGYKHMSLALNRTGRPIVYSCEWPLYMWPFQKPNYTEIRQYCNHWRNFADIDDSWASIKSILDWTSRNQERIVDVAGPGGWNDPDMLVIGNFGLSWDQQVTQMALWAIMAAPLFMSNDLRAISPQAKALLQDKDVIAINQDPLGKQGYQLRKGDNFEVWERPLSGDAWAVAIINRQEIGGPRSYTIPVASLGKGVACNPACFITQLLPVKRQLGFYNWTSRLKSHINPTGTVLLQLENTQQMSLKDLL	++ (++ = >5 to 10 relative activity over Rd3BB (SEQ ID NO: 13))	+ (+ = 1.5 to 5 relative activity over Rd3BB (SEQ ID NO: 13))	++ (++ = >5 to 10 relative activity over Rd3BB (SEQ ID NO: 13))
630 (protein, Synthetic Polypeptide sequence of Variant No. 630 of mature Human GLA) LDNGLARTPTMGWLHWERFMCNLDCQEEPDSCISEKLFMEMAERMVTEGWKDAGYEYLCIDDCWMAPQRDSEGRLQADPQRFPHGIRQLANHVHSKGLKLGIYADVGNKTCAGFPGSFGYYDIDAQTFADWGVDLLKFDGCYCDSLENLADGYKHMSLALNRTGRPIVYSCEWPLYMWPFQKPNYTEIRQYCNHWRNFADIDDSWASIKSILDWTSRNQERIVDVAGPGGWNDPDMLVIGNFGLSWDQQVTQMALWAIWAAPLFMSNDLRAISPQAKALLQDKDVIAINQDPLGKQGYQLRKGDNFEVWERPLSGDAWAVAIINRQEIGGPRSYTIPVASLGKGVACNPACFITQLLPVKRQLGFYNWTSRLKSHINPTGTVLLQLENTHQMSLKDLL	− (− = <1.5 relative activity to Rd3BB (SEQ ID NO: 13))	+ (+ = 1.5 to 5 relative activity over Rd3BB (SEQ ID NO: 13))	++ (++ = >5 to 10 relative activity over Rd3BB (SEQ ID NO: 13))
628 (protein, Synthetic Polypeptide sequence of Variant No. 628 of mature Human GLA) LDNGLARTPTMGWLHWERFMCNLDCQEEPDSCISEKLFMEMAERMVNEGWKDAGYEYLCIDDCWMAPQRDSEGRLQADPQRFPHGIRQLANHVHSKGLKLGIYADVGNKTCAGFPGSFGYYDIDAQTFADWGVDLLKFDGCYCDSLENLADGYKHMSLALNRTGRPIVYSCEWPLYMWPFQKPNYTEIRQYCNHWRNFADIDDSWASIKSILDWTSRNQERIVDVAGPGGWNDPDMLVIGNFGLSWDQQVTQMALWAIMAAPLFMSNDLRAISPQAKALLQDKDVIAINQDPLGKQGYQLRKGDNFEVWERPLSGDAWAVAIINRQEIGGPRSYTIPVASLGKGVACNPACFITQLLPVKRQLGFYNWTSRLKSHINPTGTVLLQLENTHQMSLKDLL	+ (+ = 1.5 to 5 relative activity over Rd3BB (SEQ ID NO: 13))	+ (+ = 1.5 to 5 relative activity over Rd3BB (SEQ ID NO: 13))	++ (++ = >5 to 10 relative activity over Rd3BB (SEQ ID NO: 13))
609 (protein, Synthetic Polypeptide sequence of Variant No. 609 of mature Human GLA) LDNGLARTPTMGWLHWERFMCNLDCQEEPDSCISEKLFMEMAERMVSEGWKDAGYEYLCIDDCWMAPQRDSEGRLQADPQRFPHGIRQLANYVHSKGLKLGIYADVGNKTCAGFPGSFGYYDIDAQTFADWGVDLLKFDGCYCDSLENLADGYKHMSLALNRTGRPIVYSCEWPLYMWPFQKPNYTEIRQYCNHWRNFADIDDSWASIKSILDWTSRNQERIVDVAGPGGWNDPDMLVIGNFGLSWDQQVTQMALWAIMAAPLFMSNDLRHISPQAKALLQDKDVIAINQDPLGKQGYQLRKGDNFEVWERPLSGDAWAVAIINRQEIGGPRSYTIPVASLGKGVACNPACFITQLLPVKRQLGFYNWTSRLKSHINPTGTVLLQLENTMQMSLKDLL	++ (++ = >5 to 10 relative activity over Rd3BB (SEQ ID NO: 13))	+ (+ = 1.5 to 5 relative activity over Rd3BB (SEQ ID NO: 13))	++ (++ = >5 to 10 relative activity over Rd3BB (SEQ ID NO: 13))
625 (protein, Synthetic Polypeptide sequence of Variant No. 625) LDNGLARTPTMGWLHWERFMCNLDCQEEPDSCISEKLFMEMAERMVTEGWKDAGYEYLCIDDCWMAPQRDSEGRLQADPQRFPHGIRQLANHVHSKGLKLGIYADVGNKTCAGFPGSFGYYDIDAQTFADWGVDLLKFDGCYCDSLENLADGYKHMSLALNRTGRPIVYSCEWPLYMWPFQKPNYTEIRQYCNHWRNFADIDDSWASIKSILDWTSRNQERIVDVAGPGGWNDPDMLVIGNFGLSWDQQVTQMALWAIMAAPLFMSNDLRAISPQAKALLQDKDVIAINQDPLGKQGYQLRKGDNFEVWERPLSGDAWAVAIINRQEIGGPRSYTIPVASLGKGVACNPACFITQLLPVKRQLGFYNWTSRLKSHINPTGTVLLQLENTMQTSLKDLL	++ (++ = >5 to 10 relative activity over Rd3BB (SEQ ID NO: 13))	+ (+ = 1.5 to 5 relative activity over Rd3BB (SEQ ID NO: 13))	++ (++ = >5 to 10 relative activity over Rd3BB (SEQ ID NO: 13))
629 (protein, Synthetic Polypeptide sequence of Variant No. 629 of mature Human GLA) LDNGLARTPTMGWLHWERFMCNLDCQEEPDSCISEKLFMEMAERMVTEGWKDAGYEYLCIDDCWMAPQRDSEGRLQADPQRFPHGIRQLANYVHSKGLKLGIYADVGNKTCAGFPGSFGYYDIDAQTFADWGVDLLKFDGCYCDSLENLADGYKHMSLALNRTGRPIVYSCEWPLYMWPFQKPNYTEIRQYCNHWRNFADIDDSWASIKSILDWTSRNQERIVDVAGPGGWNDPDMLVIGNFGLSWDQQVTQMALWAIMAAPLFMSNDLRAISPQAKALLQDKDVIAINQDPLGKQGYQLRKGDNFEVWERPLSGDAWAVAIINRQEIGGPRSYTIPVASLGKGVACNPACFITQLLPVKRQLGFYNWTSRLKSHINPTGTVLLQLENTQQMSLKDLL	++ (++ = >5 to 10 relative activity over Rd3BB (SEQ ID NO: 13))	+ (+ = 1.5 to 5 relative activity over Rd3BB (SEQ ID NO: 13))	++ (++ = >5 to 10 relative activity over Rd3BB (SEQ ID NO: 13))
626 (protein, Synthetic Polypeptide sequence of Variant No. 626 of mature Human GLA) LDNGLARTPTMGWLHWERFMCNLDCQEEPDSCISEKLFMEMAERMVSEGWKDAGYEYLCIDDCWMAPQRDSEGRLQADPQRFPHGIRQLANHVHSKGLKLGIYADVGNKTCAGFPGSFGYYDIDAQTFADWGVDLLKFDGCYCDSLENLADGYKHMSLALNRTGRPIVYSCEWPLYMWPFQKPNYTEIRQYCNHWRNFADIDDSWASIKSILDWTSRNQERIVDVAGPGGWNDPDMLVIGNFGLSWDQQVTQMALWAIMAAPLFMSNDLRAISPQAKALLQDKDVIAINQDPLGKQGYQLRKGDNFEVWERPLSGDAWAVAIINRQEIGGPRSYTIPVASLGKGVACNPACFITQLLPVKRQLGFYNWTSRLKSHINPTGTVLLQLENTQQMSLKDLL	++ (++ = >5 to 10 relative activity over Rd3BB (SEQ ID NO: 13))	+ (+ = 1.5 to 5 relative activity over Rd3BB (SEQ ID NO: 13))	++ (++ = >5 to 10 relative activity over Rd3BB (SEQ ID NO: 13))
627 (protein, Synthetic Polypeptide sequence of Variant No. 627 of mature Human GLA) LDNGLARTPTMGWLHWERFMCNLDCQEEPDSCISEKLFMEMAERMVNEGWKDAGYEYLCIDDCWMAPQRDSEGRLQADPQRFPHGIRQLANHVHSKGLKLGIYADVGNKTCAGFPGSFGYYDIDAQTFADWGVDLLKFDGCYCDSLENLADGYKHMSLALNRTGRPIVYSCEWPLYMWPFQKPNYTEIRQYCNHWRNFADIDDSWASIKSILDWTSRNQERIVDVAGPGGWNDPDMLVIGNFGLSWDQQVTQMALWAIWAAPLFMSNDLRAISPQAKALLQDKDVIAINQDPLGKQGYQLRKGDNFEVWERPLSGDAWAVAIINRQEIGGPRSYTIPVASLGKGVACNPACFITQLLPVKRQLGFYNWTSRLKSHINPTGTVLLQLENTHQTSLKDLL	− (− = <1.5 relative activity to Rd3BB (SEQ ID NO: 13))	+ (+ = 1.5 to 5 relative activity over Rd3BB (SEQ ID NO: 13))	++ (++ = >5 to 10 relative activity over Rd3BB (SEQ ID NO: 13))
